Experimental findings from patent US6339139 are described below.

Holding throughout (assay): cell-based or functional assay
Assay [1] addresses insulin growth factor I receptor (human) (UniProt P08069).
The target of assay [2] is insulin growth factor II receptor (human) (UniProt P11717).
Assay [3] has as its target epidermal growth factor receptor (human) (UniProt P00533).

Sequence of UniProt P08069 (P08069 31-1367): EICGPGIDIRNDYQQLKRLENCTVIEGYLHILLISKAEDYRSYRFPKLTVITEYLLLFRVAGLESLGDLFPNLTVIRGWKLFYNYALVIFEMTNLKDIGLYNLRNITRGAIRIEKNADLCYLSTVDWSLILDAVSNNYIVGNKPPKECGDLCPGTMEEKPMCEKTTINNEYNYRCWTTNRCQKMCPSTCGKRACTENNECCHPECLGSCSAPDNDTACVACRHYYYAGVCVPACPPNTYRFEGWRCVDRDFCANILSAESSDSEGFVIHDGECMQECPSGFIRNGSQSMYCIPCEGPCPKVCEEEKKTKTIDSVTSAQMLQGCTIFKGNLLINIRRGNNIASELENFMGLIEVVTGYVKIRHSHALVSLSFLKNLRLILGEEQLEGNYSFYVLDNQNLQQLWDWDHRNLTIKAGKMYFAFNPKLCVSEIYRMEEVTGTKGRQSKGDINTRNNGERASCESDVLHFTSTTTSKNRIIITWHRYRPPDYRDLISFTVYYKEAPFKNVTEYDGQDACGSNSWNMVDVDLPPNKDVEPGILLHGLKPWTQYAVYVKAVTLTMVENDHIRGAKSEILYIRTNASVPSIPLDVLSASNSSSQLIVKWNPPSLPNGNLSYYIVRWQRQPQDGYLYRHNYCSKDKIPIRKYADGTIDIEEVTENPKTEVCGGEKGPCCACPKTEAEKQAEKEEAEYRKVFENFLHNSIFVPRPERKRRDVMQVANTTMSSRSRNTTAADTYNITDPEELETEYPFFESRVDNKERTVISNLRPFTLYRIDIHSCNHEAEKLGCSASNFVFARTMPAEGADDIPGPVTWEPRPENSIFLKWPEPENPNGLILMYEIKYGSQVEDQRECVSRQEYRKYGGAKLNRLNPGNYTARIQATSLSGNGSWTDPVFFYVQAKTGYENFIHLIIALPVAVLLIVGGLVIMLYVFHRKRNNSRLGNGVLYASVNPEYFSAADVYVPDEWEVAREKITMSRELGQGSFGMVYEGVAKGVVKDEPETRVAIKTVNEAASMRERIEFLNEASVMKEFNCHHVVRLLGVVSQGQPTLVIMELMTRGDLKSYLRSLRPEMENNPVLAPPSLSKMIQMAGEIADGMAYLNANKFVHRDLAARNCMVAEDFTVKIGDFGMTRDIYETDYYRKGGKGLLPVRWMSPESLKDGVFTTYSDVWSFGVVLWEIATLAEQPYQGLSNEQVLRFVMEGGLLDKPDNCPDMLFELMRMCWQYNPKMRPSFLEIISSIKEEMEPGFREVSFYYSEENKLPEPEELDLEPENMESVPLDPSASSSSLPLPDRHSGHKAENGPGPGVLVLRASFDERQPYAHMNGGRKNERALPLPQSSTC
Sequence of UniProt P11717 (P11717 41-2491): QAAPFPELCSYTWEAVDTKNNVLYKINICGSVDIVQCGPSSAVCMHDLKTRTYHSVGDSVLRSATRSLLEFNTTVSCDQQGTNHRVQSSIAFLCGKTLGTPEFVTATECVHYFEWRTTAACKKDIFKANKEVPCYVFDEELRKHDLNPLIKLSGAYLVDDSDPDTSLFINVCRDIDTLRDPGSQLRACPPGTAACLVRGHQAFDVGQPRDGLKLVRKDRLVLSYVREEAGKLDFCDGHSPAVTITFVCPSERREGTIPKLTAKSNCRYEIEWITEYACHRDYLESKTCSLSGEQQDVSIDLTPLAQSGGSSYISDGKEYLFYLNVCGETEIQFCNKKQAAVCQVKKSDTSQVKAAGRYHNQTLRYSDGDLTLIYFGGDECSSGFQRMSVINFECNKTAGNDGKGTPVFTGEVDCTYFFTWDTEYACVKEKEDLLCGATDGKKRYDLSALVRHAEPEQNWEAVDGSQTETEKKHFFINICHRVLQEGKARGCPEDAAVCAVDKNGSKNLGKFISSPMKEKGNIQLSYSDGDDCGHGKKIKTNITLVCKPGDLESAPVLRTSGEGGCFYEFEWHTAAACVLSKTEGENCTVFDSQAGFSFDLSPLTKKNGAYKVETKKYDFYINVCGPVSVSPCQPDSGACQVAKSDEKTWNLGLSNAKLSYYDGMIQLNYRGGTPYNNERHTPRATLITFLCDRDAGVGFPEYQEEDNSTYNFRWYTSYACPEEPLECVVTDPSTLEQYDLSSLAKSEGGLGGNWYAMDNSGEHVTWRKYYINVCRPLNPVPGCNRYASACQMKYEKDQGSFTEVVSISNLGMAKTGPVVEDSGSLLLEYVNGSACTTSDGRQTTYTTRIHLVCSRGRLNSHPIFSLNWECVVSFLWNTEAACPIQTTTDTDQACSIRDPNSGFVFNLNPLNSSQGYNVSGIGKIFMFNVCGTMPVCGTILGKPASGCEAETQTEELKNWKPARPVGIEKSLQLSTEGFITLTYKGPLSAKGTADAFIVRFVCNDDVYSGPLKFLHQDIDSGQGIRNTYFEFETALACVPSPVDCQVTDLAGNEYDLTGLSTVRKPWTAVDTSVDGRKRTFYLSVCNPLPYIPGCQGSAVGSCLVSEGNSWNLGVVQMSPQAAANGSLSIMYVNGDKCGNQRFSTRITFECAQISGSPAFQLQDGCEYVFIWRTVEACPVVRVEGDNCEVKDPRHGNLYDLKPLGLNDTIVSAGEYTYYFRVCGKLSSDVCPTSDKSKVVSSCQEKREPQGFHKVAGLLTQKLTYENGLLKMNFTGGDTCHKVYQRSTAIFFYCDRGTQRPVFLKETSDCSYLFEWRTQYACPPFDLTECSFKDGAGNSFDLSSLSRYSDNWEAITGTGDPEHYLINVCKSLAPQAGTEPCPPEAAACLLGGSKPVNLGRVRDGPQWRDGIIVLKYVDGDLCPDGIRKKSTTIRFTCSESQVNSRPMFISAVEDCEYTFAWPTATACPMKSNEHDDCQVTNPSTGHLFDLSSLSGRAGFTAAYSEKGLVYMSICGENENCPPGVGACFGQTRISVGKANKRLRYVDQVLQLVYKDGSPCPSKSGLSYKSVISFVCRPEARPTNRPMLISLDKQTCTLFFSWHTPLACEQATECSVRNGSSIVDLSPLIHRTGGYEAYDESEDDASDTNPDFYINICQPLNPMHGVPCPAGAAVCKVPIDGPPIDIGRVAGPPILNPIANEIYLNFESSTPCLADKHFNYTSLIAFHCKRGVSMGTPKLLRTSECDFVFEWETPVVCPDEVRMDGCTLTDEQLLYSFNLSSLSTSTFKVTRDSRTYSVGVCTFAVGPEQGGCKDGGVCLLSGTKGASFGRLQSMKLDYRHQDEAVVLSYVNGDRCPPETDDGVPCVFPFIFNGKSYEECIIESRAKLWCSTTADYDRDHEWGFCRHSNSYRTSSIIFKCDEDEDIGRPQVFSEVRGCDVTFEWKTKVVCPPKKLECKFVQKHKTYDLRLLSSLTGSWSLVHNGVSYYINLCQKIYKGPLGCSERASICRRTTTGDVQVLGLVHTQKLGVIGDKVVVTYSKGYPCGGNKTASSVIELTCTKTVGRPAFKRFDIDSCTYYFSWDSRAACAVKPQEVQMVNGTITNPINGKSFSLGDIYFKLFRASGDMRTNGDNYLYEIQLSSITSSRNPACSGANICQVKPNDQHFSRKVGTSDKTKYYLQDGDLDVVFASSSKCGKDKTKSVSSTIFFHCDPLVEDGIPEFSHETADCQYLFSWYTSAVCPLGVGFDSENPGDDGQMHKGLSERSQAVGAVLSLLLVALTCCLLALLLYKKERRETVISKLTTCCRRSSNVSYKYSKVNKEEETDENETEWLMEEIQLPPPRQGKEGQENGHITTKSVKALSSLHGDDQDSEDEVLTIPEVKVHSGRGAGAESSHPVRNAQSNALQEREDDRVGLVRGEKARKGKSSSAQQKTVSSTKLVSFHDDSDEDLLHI

With “E5-polylysine/HA20-polylysine/pSV β-gal DNA”, the Percentage of β-gal positive cells, SMMC-7721 in assay [1] and in assay [2] was 60% each time.
Regarding E5-polylysine/pSV β-gal DNA, the Percentage of β-gal positive cells, SMMC-7721 in assay [1] and in assay [2] was 10% throughout.
In assay [3], “GE7-polylysine/HA20-polylysine/pSV-β-gal DNA” registered a Percentage of β-gal (+) cells, 3AO of over 65%; a Percentage of β-gal (+) cells, BEL-7402 of over 90%; a Percentage of β-gal (+) cells, Bcap-37 of over 80%; a Percentage of β-gal (+) cells, SMMC-7721 of over 80%. Also, in assay [3], the Percentage of β-gal (+) cells, SPC-A1 was over 80% and the Percentage of β-gal (+) cells, U87 was over 30%.
